Measurements as given in US20050238723A1, “Method of producing hydroxyalkyl starch derivatives” (priority 2002, published 2005).

Tested on: normocythaemic mouse
Assay: EPO-bioassay in the normocythaemic mouse system (European Pharmacopeia)
Format: in vivo
Procedure: Quantitative determination of EPO protein was performed by measuring UV absorption at 280 nm according to the Eur. Phar. (European Pharmacopeia 4, Monography January 2002: 1316: erythropoietin concentrated solution) in a cuvette with 1 cm path length. In addition, EPO was quantitated by applying a RP-HPLC method using a RP-C4 column (Vydac Protein C4, Cat.# 214TP5410, Grace Vydac, Calif., US); the HPLC method was calibrated using the erythropoietin BRP 1 reference standard (European Pharmacopeia, Conseil de l'Europe B.P. 907-F67029, Strasbourg Cedex 1).
The EPO-bioassay in the normocythaemic mouse system indicates was performed according to the procedures described in the European Pharmacopeia; the laboratory that carried out the EPO assay was using the International BRP EPO reference standard preparation. For the HES-modified EPO A2 preparation a mean value for the specific activity of 294,600 units per mg EPO of protein was determined indicating an approximately 3-fold higher specific activity when compared to the International BRP EPO reference standard preparation that was included in the samples sent for activity assays.
In vivo activity determinations are performed in normocythemic mice by measuring the increase of reticulocytes after 4 days after animals received the foreseen dose of EPO or modified EPO forms. Assays are performed using the BRP EPO standard which is calibrated against the WHO EPO standard in the polycythemic mouse assay. EPO samples are diluted in phosphate buffered saline containing 1 mg/ml of bovine serum albumin (Sigma).
0.5 ml of the EPO test solution in Dulbecco's buffered saline (corresponding to an EPO protein equivalent of a 100, 80, 40 or 20 IU/ml of the BRP standard EPO) are infected subcutaneously per animal. Blood samples are taken after 4 days after injection and reticulocytes are stained with acridine orange; quantitation of reticulocytes is performed by flow-cytometry by counting a total of 30,000 blood cells within 5 hours after the blood sample was taken (see Ph. Eur, 2000, Erythropoietini solutio concentrata, 1316, pages 780-785) and European Pharmacopoeia (1996/2000, attachment 2002).

[1] = sample diluted with 4 volume of PBS

Substance | Calculated specific activity of EPO sample (basedon A280 nm and RP-HPLC determination) (sample as such) | Calculated specific activity of EPO sample (basedon A280 nm and RP-HPLC determination) [1]
BRP EPO standard: erythropoietin BRP reference standard of the European Pharmacopeia [reference compound] | 86,702 U/mg | 81,200 U/mg
Control EPO K2: control incubation of unmodified EPO-GT-1 with unmodified HES; Q-Sepharose fraction eluted with high salt | 121,410 U/mg | 114,100 U/mg
